The results in this text go back to PMC10242635.

Data set [1] has as its target T1, FXR-DBD;RXR-DBD (human;human, UniProt Q96RI1-1;P19793 117-217;130-212, |). The data set is described as follows: X-ray crystallography.
The next data set has as its target T2, FXR-DBD (human, UniProt Q96RI1-1 117-217).
T2 sequence: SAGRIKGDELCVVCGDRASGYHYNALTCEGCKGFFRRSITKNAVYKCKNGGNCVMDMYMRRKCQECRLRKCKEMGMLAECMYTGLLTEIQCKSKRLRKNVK
The data set is described as follows: fluorescence polarization.

In data set [2] the target is T1, FXR-DBD;RXR-DBD. The data set is described as follows: fluorescence polarization.

T1 sequence (P19793 130-212, one chain of several): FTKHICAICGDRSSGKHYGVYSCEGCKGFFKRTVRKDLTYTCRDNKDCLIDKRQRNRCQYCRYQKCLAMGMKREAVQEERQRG

B1: IR1 (crystal) (dsDNA)
DNA 1: CCGAGGTCAATGACCTCG
DNA 2: CCGAGGTCATTGACCTCG
Take B1: the binding result with FXR-DBD;RXR-DBD [1] is on record as “binds”.

B2: IR1 (FPA) (dsDNA)
DNA 1: CCGAGGTCAATGACCTCG
DNA 2: CGAGGTCATTGACCTCGG
Turning to B2, the dissociation constant Kd – broadly, the concentration at which binding is half-saturated – with FXR-DBD was 95 nM; with FXR-DBD;RXR-DBD [2] it was about 54 nM.
